# Data taken from US10864252B2, “Anti-SSX-2 T cell receptors and related materials and methods of use” (The United States of America, as represented by the …, priority 2010, dated 2020).
# Key:
# [1] = system: SSX-2+/HLA-A2+ target cells; assay: Percent lysis of target cells; type: cell-based; settings: FIGS. 7A-D and 8A-D, various E:T ratios
# 293-A2 = assay: IFN-γ release, co-culture with 293-A2; type: cell-based; settings: co-cultured with 293-A2
# From the text: (§1) SSX-2 TCR-transduced PBLs were co-cultured with various tumor cell lines. […] FIGS. 4A and 4B, FIG. 11, and Tables 3 and 4 show additional results of PBLs from human donors that were transduced with the SSX-2 TCR of Example 2 when these PBLs were co-cultured with various tumor cells. PBLs that were untransduced (UT) or transduced with a vector comprising SEQ ID NO: 27 (SSX-2 TCR), SEQ ID NO: 29 (codon-optimized SSX-2 TCR), or SEQ ID NO: 30 (codon-optimized SSX-2 TCR including mouse constant region) were co-cultured with various tumor cell lines. Tables 5 and 6 show the resulting interferon-γ levels (pg/ml) measured with respect to PBL from two different donors.
# K562 = assay: IFN-γ release, co-culture with K562; type: cell-based; settings: co-cultured with K562
# From the text: (§2) PBLs that were untransduced (UT) or transduced with a vector comprising SEQ ID NO: 27 (SSX-2 TCR), SEQ ID NO: 29 (codon-optimized SSX-2 TCR), or SEQ ID NO: 30 (codon-optimized SSX-2 TCR including mouse constant region) were co-cultured with various tumor cell lines. Tables 5 and 6 show the resulting interferon-γ levels (pg/ml) measured with respect to PBL from two different donors.
# 938 mel = assay: IFN-γ release, co-culture with 938; type: cell-based; settings: for IFN-γ: co-cultured with 938; for interferon-γ levels: co-cultured with 938 mel
# From the text: as §1
# 888 = assay: IFN-γ release, co-culture with 888; type: cell-based; settings: co-cultured with 888
# From the text: (§3) SSX-2 TCR-transduced PBLs were co-cultured with various tumor cell lines. […] FIGS. 4A and 4B, FIG. 11, and Tables 3 and 4 show additional results of PBLs from human donors that were transduced with the SSX-2 TCR of Example 2 when these PBLs were co-cultured with various tumor cells.
# U251 Glioma = assay: IFN-γ release, co-culture with U251 glioma; type: cell-based; settings: co-cultured with U251 (Glioma)
# From the text: as §1
# 293-A2 SSX2 = assay: IFN-γ release, co-culture with 293-A2 SSX2; type: cell-based; settings: co-cultured with 293-A2 SSX2
# From the text: as §1
# MCF7 = assay: IFN-γ release, co-culture with MCF7; type: cell-based; settings: co-cultured with MCF7
# From the text: as §3
# OVCAR3 = assay: IFN-γ release, co-culture with OVCAR3; type: cell-based; settings: co-cultured with OVCAR3
# From the text: as §3
# T331A mel = assay: IFN-γ release, co-culture with T331A; type: cell-based; settings: for IFN-γ: co-cultured with T331A; for interferon-γ levels: co-cultured with T331A mel
# From the text: as §1
# COS-A2-SSX2 cells = assay: CD137 (4-1BB) upregulation after co-culture with COS-A2-SSX2 cells; type: cell-based; settings: FACS after co-culture with COS-A2-SSX2 cells
# HEPG2 = assay: IFN-γ release, co-culture with HEPG2; type: cell-based; settings: co-cultured with HEPG2
# From the text: as §3
# H82 = assay: IFN-γ release, co-culture with H82; type: cell-based; settings: co-cultured with H82
# From the text: as §3
# [2] = IFN-γ release, transduced PBL without target cells (medium / T cell alone); type: cell-based, human; settings: for IFN-γ: MEDIUM, no target cells; for interferon-γ levels: T cell alone
# From the text: as §1
# 938-A2 mel = assay: IFN-γ release, co-culture with 938-A2 melanoma; type: cell-based; settings: Table 3; co-cultured with 938-A2 (Melanoma)
# From the text: as §1
# [3] = system: melanoma (624, and 1300) and glioblastoma cell lines (U251); assay: IFN-γ release, co-culture with various tumor cell lines (FIG. 3); type: cell-based
# From the text: SSX-2 TCR-transduced PBLs were co-cultured with various tumor cell lines.
# SKMEL 23 = assay: IFN-γ release, co-culture with SKMEL 23; type: cell-based; settings: co-cultured with SKMEL 23
# From the text: as §3
# SK MEL37 = assay: IFN-γ release, co-culture with SK MEL37 melanoma; type: cell-based; settings: co-cultured with SK MEL37 (Melanoma)
# From the text: as §1
# COS-A2 SSX2 = assay: IFN-γ release, co-culture with COS-A2 SSX2; type: cell-based; settings: co-cultured with COS-A2 SSX2
# From the text: as §1
# T567A = assay: IFN-γ release, co-culture with T567A melanoma; type: cell-based; settings: co-cultured with T567A (Melanoma)
# From the text: as §3
# Lau 149 mel = assay: IFN-γ release, co-culture with Lau 149 mel; type: cell-based; settings: co-cultured with Lau 149 mel
# From the text: as §2
# SSX-1 to SSX-10 peptides = assay: Co-culture with T2 cells pulsed with SSX family peptides; type: cell-based; settings: peptide-pulsed T2 cells; FIG. 5
# Experimental: The peptides used for pulsing were: SSX-1 (KYSEKISYV, SEQ ID NO: 32) (-♦-); SSX-2 (KASEKIFYV, SEQ ID NO: 2) (▪); SSX-3 (KVSEKIVYV, SEQ ID NO: 8) (▪); SSX-4 (KSSEKIVYV, SEQ ID NO: 9) (X); SSX-5 (KASEKIIYV, SEQ ID NO: 10) ( ? ); SSX-6 (KFSEKISCV, SEQ ID NO: 33) (•); SSX-7 (KSLEKISYV, SEQ ID NO: 34) (|); SSX-8 KYSEKISYV, SEQ ID NO: 32) (-); SSX-9 (KSSEKIIYV, SEQ ID NO: 11) (—); and SSX-10 (KASEKILYV, SEQ ID NO: 12) (--♦--).
# Co-culture assays were performed with PBLs transduced with the SSX-2 TCR of Example 2 and peptide-pulsed T2 cells.
molecule,measurement,setting,value
"SSX2-TCR-WT: HLA-A2 restricted anti-SSX-2 TCR alpha and beta chains encoded by SEQ ID NO: 27, tested as transduced human PBLs (protein) MSLSSLLKVVTASLWLGPGIAQKITQTQPGMFVQEKEAVTLDCTYDTSDPSYGLFWYKQPSSGEMIFLIYQGSYDQQNATEGRYSLNFQKARKSANLVISASQLGDSAMYFCAMTSGFGNEKLTFGTGTRLTIIPNIQNPDPAVYQLRDSKSSDKSVCLFTDFDSQTNVSQSKDSDVYITDKTVLDMRSMDFKSNSAVAWSNKSDFACANAFNNSIIPEDTFFPSPESSCDVKLVEKSFETDTNLNFQNLSVIGFRILLLKVAGFNLLMTLRLWSSRAKRSGSGATNFSLLKQAGDVEENPGPMGPGLLHWMALCLLGTGHGDAMVIQNPRYQVTQFGKPVTLSCSQTLNHNVMYWYQQKSSQAPKLLFHYYDKDFNNEADTPDNFQSRRPNTSFCFLDIRSPGLGDAAMYLCATSRGQGGQPQHFGDGTRLSILEDLNKVFPPEVAVFEPSEAEISHTQKATLVCLATGFFPDHVELSWWVNGKEVHSGVSTDPQPLKEQPALNDSRYCLSSRLRVSATFWQNPRNHFRCQVQFYGLSENDEWTQDRAKPVTQIVSAEAWGRADCGFTSVSYQQGVLSATILYEILLGKATLYAVLVSALVLMAMVKRKDF",lytic activity (percent lysis),[1],specific lytic activity against SSX-2^+/HLA-A2^+ target cells
same,IFN-γ,293-A2; Table 3,173 pg/mL
same,IFN-γ,293-A2; Table 4,144 pg/mL
same,interferon-γ levels,293-A2; Table 5 donor,582 pg/mL
same,interferon-γ levels,293-A2; Table 6 donor,1520 pg/mL
same,interferon-γ levels,K562; Table 5 donor,1969 pg/mL
same,interferon-γ levels,K562; Table 6 donor,1807 pg/mL
same,IFN-γ,938 mel; Table 3,0 pg/mL
same,IFN-γ,938 mel; Table 4,0 pg/mL
same,interferon-γ levels,938 mel; Table 5 donor,1239 pg/mL
same,interferon-γ levels,938 mel; Table 6 donor,1451 pg/mL
same,IFN-γ,888; Table 3,126 pg/mL
same,IFN-γ,888; Table 4,143 pg/mL
same,IFN-γ,U251 Glioma; Table 3,9770 pg/mL
same,IFN-γ,U251 Glioma; Table 4,12025 pg/mL
same,IFN-γ,293-A2 SSX2; Table 3,33913 pg/mL
same,IFN-γ,293-A2 SSX2; Table 4,20595 pg/mL
same,IFN-γ,MCF7; Table 3,0 pg/mL
same,IFN-γ,MCF7; Table 4,3 pg/mL
same,IFN-γ,OVCAR3; Table 3,0 pg/mL
same,IFN-γ,OVCAR3; Table 4,21 pg/mL
same,IFN-γ,T331A mel; Table 3,0 pg/mL
same,IFN-γ,T331A mel; Table 4,42 pg/mL
same,interferon-γ levels,T331A mel; Table 5 donor,30 pg/mL
same,interferon-γ levels,T331A mel; Table 6 donor,58 pg/mL
same,activation marker CD137 (4-1BB),COS-A2-SSX2 cells,upregulated
same,IFN-γ,HEPG2; Table 3,25 pg/mL
same,IFN-γ,HEPG2; Table 4,61 pg/mL
same,IFN-γ,H82; Table 3,141 pg/mL
same,IFN-γ,H82; Table 4,100 pg/mL
same,IFN-γ,[2]; Table 3,0 pg/mL
same,IFN-γ,[2]; Table 4,0 pg/mL
same,interferon-γ levels,[2]; Table 5 donor,165 pg/mL
same,interferon-γ levels,[2]; Table 6 donor,322 pg/mL
same,IFN-γ,938-A2 mel,19320 pg/mL
same,recognition of tumor cell lines (IFN-γ),[3],"recognized naturally processed and presented SSX-2 protein in both melanoma (624, and 1300) and glioblastoma cell lines (U251)"
same,IFN-γ,SKMEL 23; Table 3,0 pg/mL
same,IFN-γ,SKMEL 23; Table 4,0 pg/mL
same,IFN-γ,SK MEL37; Table 3,10000 pg/mL
same,IFN-γ,SK MEL37; Table 4,9720 pg/mL
same,IFN-γ,COS-A2 SSX2; Table 3,36070 pg/mL
same,IFN-γ,COS-A2 SSX2; Table 4,56820 pg/mL
same,IFN-γ,T567A; Table 3,10280 pg/mL
same,IFN-γ,T567A; Table 4,13245 pg/mL
same,interferon-γ levels,Lau 149 mel; Table 5 donor,285 pg/mL
same,interferon-γ levels,Lau 149 mel; Table 6 donor,125 pg/mL
same,reactivity with SSX family peptides,SSX-1 to SSX-10 peptides,"most reactive with the peptide of SSX-2 and also recognizes the peptides of SSX-3, -4, -5, -9, and -10 over the other SSX peptides"
